Five molecules from patent publication US20210115144A1 (Dana-Farber, published 2021) can be followed below.

The labels stand for the following.
T1: human HHLA2 expressed on transfected cells (300.19 mouse pre-B cells; CHO cells) (human, UniProt Q9UM44 23-414)
T1 construct: also called B7-H7; B7H7
T1 sequence: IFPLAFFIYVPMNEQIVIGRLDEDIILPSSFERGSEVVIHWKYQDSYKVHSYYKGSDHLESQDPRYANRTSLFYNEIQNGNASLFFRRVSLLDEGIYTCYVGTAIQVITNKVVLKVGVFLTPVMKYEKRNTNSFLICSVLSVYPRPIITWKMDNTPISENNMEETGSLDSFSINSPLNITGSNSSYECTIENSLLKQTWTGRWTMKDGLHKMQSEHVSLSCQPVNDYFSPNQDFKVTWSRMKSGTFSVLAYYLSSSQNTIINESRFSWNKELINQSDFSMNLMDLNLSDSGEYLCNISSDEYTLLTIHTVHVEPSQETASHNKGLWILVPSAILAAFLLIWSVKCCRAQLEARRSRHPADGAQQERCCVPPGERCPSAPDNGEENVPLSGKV

B1: human TMIGD2-human IgG1 fusion protein (R&D Systems catalog #8316-TR-050) (Fc fusion, UniProt Q96BF3 23-150, looked up)
chain: LSVQQGPNLLQVRQGSQATLVCQVDQATAWERLRVKWTKDGAILCQPYITNGSLSLGVCGPQGRLSWQAPSHLTLQLDPVSLNHSGAYVCWAAVEIPELEEAEGNITRLFVDPDDPTQNRNRIASFPG
notes: Bought reagent; also called TMIGD2-hIgG; TMIGD2-human Fc fusion protein; not shown: human IgG1 Fc portion of the bought fusion protein
B2: human HHLA2-mIgG2a fusion protein (Fc fusion, not shown: a dimerising Fc or GST)
chain: IFPLAFFIYVPMNEQIVIGRLDEDIILPSSFERGSEVVIHWKYQDSYKVHSYYKGSDHLESQDPRYANRTSLFYNEIQNGNASLFFRRVSLLDEGIYTCYVGTAIQVITNKVVLKVGVFLTPVMKYEKRNTNSFLICSVLSVYPRPIITWKMDNTPISENNMEETGSLDSFSINSPLNITGSNSSYECTIENSLLKQTWTGRWTMKDGLHKMQSEHVSLSCQPVNDYFSPNQDFKVTWSRMKSGTFSVLAYYLSSSQNTIINESRFSWNKELINQSDFSMNLMDLNLSDSGEYLCNISSDEYTLLTIHTVHVEPSQETASHN
notes: also called hHHLA2-mIgG2a; HHLA2-Fc
B3: human TMIGD2 expressed on transfected cells (293T, 300.19, HEK293 microarray, Jurkat) (receptor)
chain: LSVQQGPNLLQVRQGSQATLVCQVDQATAWERLRVKWTKDGAILCQPYITNGSLSLGVCGPQGRLSWQAPSHLTLQLDPVSLNHSGAYVCWAAVEIPELEEAEGNITRLFVDPDDPTQNRNRIASFPGFLFVLLGVGSMGVAAIVWGAWFWGRRSCQQRDSGNSPGNAFYSNVLYRPRGAPKKSEDCSGEGKDQRGQSIYSTSFPQPAPRQPHLASRPCPSPRPCPSPRPGHPVSMVRVSPRPSPTQQPRPKGFPKVGEE
notes: The cDNA used in 293T and 300.19 cells is not tied to an entry in words; also called CD28H; IGPR1
B4: anti-HHLA2 monoclonal antibody 2C4 (antibody, IgG1, V domains shown)
VH: EVHLQQSGPELEKPGVSVKISCKASGFSFTDYNMNWVKQSSGKSLEWIGNIDPYYGRINYNQKFKGKATLSVDKSSSTAYMHLKSLTSEDSAVYYCATGAYTSGYSWFAYWGQGTLVTVSA
VL: ENVLTQSPGIMAASLGEKVTMTCSASSSVSSSYLHWYQQRSGASPKPLIHRTSNLASGVPARFSGSGSGTSYSLTISSVEAEDDATYYCQQWSGYPFTFGSGTKLEIK
notes: also called 499.5.2C4.E6.6.8.1; MHC2562
B5: anti-HHLA2 monoclonal antibody 6F10 (antibody, IgG1, V domains shown)
VH: QVHLQQSAAELARPGASVKMSCKASGYTFTTYTMHWVKQRPGQGLEWIGHINPSSGYTDYNQKFKDKTTLTADKSSSTAYMQLNSLTSEDSAVYYCARHPWDSDYWGQGTTLTVSS
VL: DIQMTQSPASLSASVGETVTITCRASENIDSYLAWYQQKQGRSPQLLVYAATNLADGVPSRFSGSGSGTQFSLQINRLQSEDVARYYCQHYYITPFTFGSGTKLEIA
notes: also called 499.5.6F10.A4.10; MHC2557

Test [1] deals with T1, human HHLA2 expressed on transfected …. The experiment in a line: flow cytometry, staining and sorting of HHLA2-transfected 300.19 cells. As to the method: In particular, binding affinity for each anti-HHLA2 antibody was assayed. The HHLA2 cDNA and a vector encoding puromycin resistance were co-transfected by electroporation (300 volts, 1600 microfarads) into mouse 300.19 cells and selected with media containing 5 μg/ml puromycin. Cells expressing HHLA2 were identified by staining with TMIGD2-human Fc fusion protein and goat anti-human Fc antibody conjugated to phycoerythrin and single cell sorted by flow cytometry. Expression of HHLA2 in individual clones was confirmed by flow cytometry as described above. HHLA2-transfected 300.19 cells were titrated with anti-HHLA2 mAbs (FIG. 1A).
A general note: In flow cytometry, cells or beads pass a laser one at a time.

The target in another test is T2, KIR2DL1 (human, UniProt P43626 22-348).
T2 construct: whole, on cells
T2 sequence (P43626 22-348): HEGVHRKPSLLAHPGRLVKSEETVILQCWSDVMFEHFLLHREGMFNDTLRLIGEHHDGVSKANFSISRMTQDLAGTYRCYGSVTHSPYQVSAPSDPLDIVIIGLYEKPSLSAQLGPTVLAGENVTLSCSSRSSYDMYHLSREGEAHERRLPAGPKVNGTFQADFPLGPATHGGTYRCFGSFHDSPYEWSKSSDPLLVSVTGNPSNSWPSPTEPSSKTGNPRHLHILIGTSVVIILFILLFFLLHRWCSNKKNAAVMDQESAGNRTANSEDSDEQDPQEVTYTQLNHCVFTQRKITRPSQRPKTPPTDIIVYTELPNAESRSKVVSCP
Briefly: cell microarray, HHLA2-mIgG2a on fixed transfected HEK293 cells, AF647 anti-mouse IgG detection. The protocol:
(§1) Human HHLA2-mIgG2a fusion protein was added to slides of fixed, transfected HEK293 cell slides at a 20 ug/ml concentration, and the protein was detected with an AF647 labeled anti-mouse IgG detection antibody. Two replicate slides were screened for each of the 13 slide sets. Fluorescent images were analyzed and quantitated (for transfection efficiency) using ImageQuant software (GE). A protein ‘hit’ was defined as duplicate spots showing a raised signal compared to background levels. This was achieved by visual inspection using the images gridded on the ImageQuant software.
(§2) Addition of the AF647 labeled anti-mouse IgG detection antibody alone in the absence of HHLA2-mIgG2a produced no signal. The selectivity of HHLA2 binding to KIR3DL3 was evaluated using a panel of 14 KIR receptors arrayed on slides.

In the next test the target is T3, KIR2DL2 (human, UniProt P43627 22-348).
T3 construct: whole, on cells
T3 sequence (P43627 22-348): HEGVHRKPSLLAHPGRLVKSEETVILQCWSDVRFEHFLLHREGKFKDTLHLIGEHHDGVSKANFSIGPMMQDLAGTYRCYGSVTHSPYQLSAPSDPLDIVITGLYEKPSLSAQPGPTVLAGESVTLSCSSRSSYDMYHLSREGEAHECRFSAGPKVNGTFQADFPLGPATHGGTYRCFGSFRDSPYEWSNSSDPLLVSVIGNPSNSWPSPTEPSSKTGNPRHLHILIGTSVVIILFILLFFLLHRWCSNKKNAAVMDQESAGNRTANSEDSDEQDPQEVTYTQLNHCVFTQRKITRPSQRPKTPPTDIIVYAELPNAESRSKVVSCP
The description is as above. The protocol: as §1, §2

For the next test, the target named is T4, KIR2DL4 (human, UniProt Q99706 22-377).
T4 construct: whole, on cells
T4 sequence (Q99706 22-377): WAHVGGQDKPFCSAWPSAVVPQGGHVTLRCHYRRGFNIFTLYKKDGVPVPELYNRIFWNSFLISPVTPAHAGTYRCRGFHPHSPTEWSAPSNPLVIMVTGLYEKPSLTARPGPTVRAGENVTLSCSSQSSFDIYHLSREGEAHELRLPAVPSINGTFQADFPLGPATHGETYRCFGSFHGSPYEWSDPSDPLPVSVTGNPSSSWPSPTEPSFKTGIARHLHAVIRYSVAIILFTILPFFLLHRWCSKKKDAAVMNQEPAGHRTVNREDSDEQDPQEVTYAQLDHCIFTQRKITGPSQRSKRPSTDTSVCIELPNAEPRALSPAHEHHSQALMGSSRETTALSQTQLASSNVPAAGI
Described as above. The protocol:
as §1, §2

Another test addresses T5, KIR2DL5A (human, UniProt Q8N109 22-375).
T5 construct: whole, on cells
Described as above. The protocol: as §1, §2

The target in another test is T6, KIR2DL5B (human, UniProt Q8NHK3 22-375).
T6 construct: whole, on cells
T6 sequence (Q8NHK3 22-375): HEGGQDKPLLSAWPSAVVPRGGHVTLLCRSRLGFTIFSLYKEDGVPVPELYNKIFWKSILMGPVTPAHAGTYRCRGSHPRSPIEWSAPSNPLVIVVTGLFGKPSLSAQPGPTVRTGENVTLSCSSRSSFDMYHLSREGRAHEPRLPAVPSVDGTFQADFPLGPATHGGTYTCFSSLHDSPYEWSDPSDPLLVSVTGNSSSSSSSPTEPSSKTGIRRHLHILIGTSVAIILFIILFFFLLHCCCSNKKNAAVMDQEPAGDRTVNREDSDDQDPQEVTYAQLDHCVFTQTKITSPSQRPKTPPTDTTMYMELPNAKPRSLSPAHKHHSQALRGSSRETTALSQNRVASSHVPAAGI
The test is described as above. The protocol: as §1, §2

The next test concerns the target T7, KIR3DL1 (human, UniProt P43629 22-444).
T7 construct: whole, on cells
The test is described as above. The protocol:
as §1, §2

The target in a further test is T8, KIR3DS1 (human, UniProt Q14943 22-382).
T8 construct: whole, on cells
T8 sequence (Q14943 22-382): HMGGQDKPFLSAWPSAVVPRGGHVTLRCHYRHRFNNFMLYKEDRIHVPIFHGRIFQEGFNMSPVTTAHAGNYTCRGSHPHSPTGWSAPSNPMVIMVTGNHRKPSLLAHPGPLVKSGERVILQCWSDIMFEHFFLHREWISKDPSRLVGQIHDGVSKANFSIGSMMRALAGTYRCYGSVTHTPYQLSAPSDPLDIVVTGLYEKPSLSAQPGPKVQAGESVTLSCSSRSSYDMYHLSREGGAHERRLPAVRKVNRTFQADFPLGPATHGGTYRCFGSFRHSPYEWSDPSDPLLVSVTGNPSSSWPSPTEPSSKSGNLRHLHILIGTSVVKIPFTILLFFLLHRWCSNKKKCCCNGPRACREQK
The test is described as above. The protocol: as §1, §2

A further test has as its target T9, KIR3DL2 (human, UniProt P43630 22-455).
T9 construct: whole, on cells
Described as above. The protocol:
as §1, §2

The target in test [2] is T10, human KIR3DL3 expressed on transfected cells (HEK293 microarray, 293T, 300.19) (human, UniProt Q8N743 26-410).
T10 construct: also called CD158Z; KIR3DL7
T10 sequence (Q8N743 26-410 H321N limits assumed): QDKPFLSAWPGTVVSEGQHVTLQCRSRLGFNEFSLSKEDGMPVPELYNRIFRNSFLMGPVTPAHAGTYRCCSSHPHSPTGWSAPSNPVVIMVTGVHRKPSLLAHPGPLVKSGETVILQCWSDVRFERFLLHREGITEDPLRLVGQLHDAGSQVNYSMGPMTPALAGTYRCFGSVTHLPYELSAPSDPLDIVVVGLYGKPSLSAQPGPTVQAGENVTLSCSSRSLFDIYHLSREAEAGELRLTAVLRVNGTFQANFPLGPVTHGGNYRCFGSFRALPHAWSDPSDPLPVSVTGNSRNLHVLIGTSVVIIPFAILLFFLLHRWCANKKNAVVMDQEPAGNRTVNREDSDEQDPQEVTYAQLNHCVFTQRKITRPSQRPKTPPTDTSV
The experiment in a line: cell microarray, HHLA2-mIgG2a on fixed KIR-transfected HEK293 cells, AF647 anti-mouse IgG detection. The protocol:
as §1, §2

The target of test [3] is B2. Briefly: cell microarray, soluble HHLA2-mIg fusion protein on transfected HEK293 cells.
Test [4] concerns the target T1, human HHLA2 expressed on transfected …. Briefly: flow cytometry, mAb on HHLA2-transfected 300.19 mouse pre-B cells.
Test [5] shares this target. Briefly: flow cytometry, mAb titrated on human HHLA2-transfected 300.19 pre-B cells. As to the method: (§3) Binding of different HHLA2 mAbs to human and cynomolgus monkey HHLA2 was also tested and EC50 binding analysis was conducted (FIGS. 13A and 13B). […] HHLA2 mAb binding to transfected 300.19 cells was detected with PE-labeled goat anti-mouse IgG (H+L). EC50 analysis was conducted using Graph Pad Prism.

The target of test [6] is T11, cynomolgus monkey HHLA2 expressed on transfected 300.19 pre-B cells (cynomolgus monkey).
T11 construct: whole, on cells
The experiment in a line: flow cytometry, mAb titrated on cynomolgus monkey HHLA2-transfected 300.19 pre-B cells. As to the method: FIGS. 13A and 13B show HHLA2 mAb binding to human and cynomolgus monkey HHLA2. […] HHLA2 mAb binding to transfected 300.19 cells was detected with a PE-labeled goat anti-mouse IgG (H+L) by flow cytometry.
as §3

In test [7] the target is T1, human HHLA2 expressed on transfected …. The experiment in a line: flow cytometry, mAb titrated on HHLA2-transfected 300.19 pre-B cells, PE goat anti-mouse IgG. As to the method:
(§4) HHLA2 mAb cell binding and receptor blockade experiments were then performed. […] HHLA2 mAb binding to transfected 300.19 cells was detected with PE-labeled goat anti-mouse IgG (H+L). For HHLA2 mAb blocking experiments different concentration of HHLA2 mAbs were pre-incubated with 4 ug/ml of HHLA2-mIgG2a at a 1:1 ratio for 30 minutes and added to either TMIGD2 or KIR3DL3 transfected 293T cells and incubated for 30 minutes at 4° C. HHLA2-mIgG2a binding to TMIGD2 or KIR3DL3 transfected 293T cells was detected with a PE labeled Fab2 goat anti-mIgG2a antibody. EC50 and IC50 analyses were conducted using Graph Pad Prism. It was shown that HHLA2 mAb clone 2C4 has desired properties of complete KIR3DL3 blockade and partial TMIGD2 blockade (Table 6).

For test [8] the target is unchanged. The description is as above. The protocol:
as §3
The source holds these as a separate data set.

The target in test [9] is B2. Briefly: flow cytometry, mAb pre-incubated with 4 ug/ml HHLA2-mIgG2a; blockade of its binding to TMIGD2-transfected 293T cells. The protocol:
as §4

Test [10] has as its target B2. The experiment in a line: flow cytometry, mAb pre-incubated with 4 ug/ml HHLA2-mIgG2a; blockade of its binding to KIR3DL3-transfected 293T cells. As to the method: as §4
Test [11] deals with B2. Briefly: flow cytometry, mAb pre-incubated with 4 ug/ml HHLA2-mIgG2a; blockade of its binding to TMIGD2-transfected 300.19 pre-B cells. The protocol: (§5) HHLA2 mAb binding to transfected 300.19 cells was detected with PE-labeled goat anti-mouse IgG (H+L). […] EC50 and IC50 analyses were conducted using Graph Pad Prism. It was shown that HHLA2 mAb clone 2C4 has desired properties of complete KIR3DL3 blockade and partial TMIGD2 blockade (Table 7).

The target in test [12] is B2. Briefly: flow cytometry, mAb pre-incubated with 4 ug/ml HHLA2-mIgG2a; blockade of its binding to KIR3DL3-transfected 300.19 pre-B cells. The protocol:
as §5

T7 sequence (P43629 22-444): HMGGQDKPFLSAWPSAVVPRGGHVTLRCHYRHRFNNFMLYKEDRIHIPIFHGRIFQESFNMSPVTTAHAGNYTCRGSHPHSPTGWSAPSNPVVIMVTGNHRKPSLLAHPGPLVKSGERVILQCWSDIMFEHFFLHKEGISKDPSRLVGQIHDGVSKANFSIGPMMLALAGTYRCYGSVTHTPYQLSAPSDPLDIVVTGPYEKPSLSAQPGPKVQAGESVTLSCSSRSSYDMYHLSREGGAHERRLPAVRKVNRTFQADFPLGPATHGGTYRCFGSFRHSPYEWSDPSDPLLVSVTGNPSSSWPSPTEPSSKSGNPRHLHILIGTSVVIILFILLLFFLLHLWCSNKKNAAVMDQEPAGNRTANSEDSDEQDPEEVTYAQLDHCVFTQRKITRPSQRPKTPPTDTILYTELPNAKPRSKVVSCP
T9 sequence (P43630 22-455): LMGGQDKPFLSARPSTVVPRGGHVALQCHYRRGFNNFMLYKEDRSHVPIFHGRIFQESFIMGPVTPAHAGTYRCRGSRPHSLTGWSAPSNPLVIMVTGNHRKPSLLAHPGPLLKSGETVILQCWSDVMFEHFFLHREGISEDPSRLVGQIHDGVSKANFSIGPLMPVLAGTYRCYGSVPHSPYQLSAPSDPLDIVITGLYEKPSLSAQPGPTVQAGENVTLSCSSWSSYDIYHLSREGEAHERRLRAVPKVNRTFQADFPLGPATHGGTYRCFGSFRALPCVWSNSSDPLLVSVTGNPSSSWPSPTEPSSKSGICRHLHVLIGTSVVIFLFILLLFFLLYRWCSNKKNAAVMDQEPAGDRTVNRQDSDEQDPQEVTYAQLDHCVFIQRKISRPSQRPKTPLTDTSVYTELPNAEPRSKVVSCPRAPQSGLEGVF
T5 sequence (Q8N109 22-375): as the sequence (Q8NHK3 22-375) above, with D152N, S174G counted along it

Regarding B1, the binding result in test [1] is recorded as “binds”.

For the molecule B2, the binding result with KIR2DL1, in the test with KIR2DL2, with KIR2DL4, with KIR2DL5A, in the test with KIR2DL5B and in the test with KIR3DL1 was “no binding (tested: 20 ug/ml)” each time. The binding result is “no binding (tested: 20 ug/ml)” in the test with KIR3DS1, “no binding (tested: 20 ug/ml)” with KIR3DL2 and “binds” in test [2].

Regarding B3, the binding result in [3] is given as “binds”.

On to B4, for which the EC50 was 0.24 µg/mL in test [4]; 0.29 µg/mL in test [5]; 0.47 µg/mL in test [6]; 0.24 µg/mL in test [7]; 0.29 µg/mL in test [8]. The half-maximal inhibitory concentration (IC50) in test [9] amounted to 28.2 µg/mL; in [10] it was 0.52 µg/mL; in test [11] it was 7.3 µg/mL; in [12] it was 0.97 µg/mL.

On to B5, for which the EC50 in test [4] amounted to 0.25 µg/mL; in test [5], 0.22 µg/mL; in test [6], 0.4 µg/mL; in test [7], 0.25 µg/mL; in [8], 0.22 µg/mL. Moreover, the IC50 in [9] stood at 0.55 µg/mL; in test [10] it was 0.9 µg/mL; in test [11] it was 0.92 µg/mL; in test [12], 0.74 µg/mL.

A word on the EC50: it is the concentration needed to bring the measured effect to its halfway point. Broadly, the IC50 is the point on the concentration scale where inhibition reaches its midpoint.
